Assay results: publication PMC10246530

Key:
[1] = biological target: T1, SARS-CoV-2 nucleocapsid NTD (WT) (SARS-CoV-2 (reference genome …, UniProt P0DTC9 44-180)); assay: ITC; details: protein: recombinant; tags: cleaved tag; one artificial N-terminal Gly left; label: 5'-32P in EMSA; hairpin
[2] = biological target: T1, SARS-CoV-2 nucleocapsid NTD (WT); assay: ITC; low-salt; NTD titrated to RNA; details: protein: recombinant; tags: cleaved tag; one artificial N-terminal Gly left; label: 5'-32P in EMSA; hairpin
[3] = biological target: T2, SARS-CoV-2 nucleocapsid NTD (WT) (SARS-CoV-2 (reference genome …, UniProt P0DTC9 44-180)); assay: EMSA; details: protein: recombinant; tags: cleaved tag; one artificial N-terminal Gly left; label: 5'-32P in EMSA; branched stem-loops
[4] = biological target: T2, SARS-CoV-2 nucleocapsid NTD (WT); assay: EMSA; 1 mM Mg2+, yeast tRNA; apparent; details: protein: recombinant, tags: cleaved tag, one artificial N-terminal Gly left, label: 5'-32P in EMSA
[5] = biological target: T2, SARS-CoV-2 nucleocapsid NTD (WT); assay: NMR; SL4ext-like; details: protein: recombinant; tags: cleaved tag; one artificial N-terminal Gly left
[6] = biological target: T2, SARS-CoV-2 nucleocapsid NTD (WT); assay: NMR; intermediate exchange; details: protein: recombinant; tags: cleaved tag; one artificial N-terminal Gly left; labile hairpin, Tm 36.5 C
[7] = biological target: T2, SARS-CoV-2 nucleocapsid NTD (WT); assay: NMR; SL4ext-like; stability confirmed by aSEC; details: protein: recombinant, tags: cleaved tag, one artificial N-terminal Gly left
[8] = biological target: T2, SARS-CoV-2 nucleocapsid NTD (WT); assay: ITC; low-salt; details: protein: recombinant; tags: cleaved tag; one artificial N-terminal Gly left; hairpin with 3' ss extension

## GGGUGUGGCUGUCACUCGGCUGCAUGCUUAGUGCACUCACGCCC (structured_RNA) [SL4]
[1]
  Kd: 53 µM
[2]
  Kd: 64 µM

B1: SL5 (structured_RNA)
RNA: GGUCGUUGACAGGACACGAGUAACUCGUCUAUCUUCUGCAGGCUGCUUACGGUUUCGUCCGUGUUGCAGCCGAUCAUCAGCACAUCUAGGUUUCGUCCGGGUGUGACCGAAAGGUAAGAUGGAGAGCCUUGUCCCUGGUUUCAACGAGAA
[3]
  binding result: binds

B2: SL4ext (SL4_extSL4) (structured_RNA)
RNA: GGUCUGUGUGGCUGUCACUCGGCUGCAUGCUUAGUGCACUCACGCAGUAUAAUUAAUAACUAAUUACUG
[4]; 15N-U/G for RNA-observed NMR, hairpin with 3' labile extension
  apparent K (half saturation): ~5 µM

## GGAUGAAGAUUUUCAAGAAAACUGGAACACUAA (structured_RNA) [P2]
[5]
  binding result: binds

## GGAUAAUUAAUAACUAAUUACU (ssRNA) [Ext]
[6]
  binding result: binds

## GCCUAAUCUUUACAAAAUGCAAAGA (structured_RNA) [P3_B]
[7]; labile hairpin
  binding result: binds

## GCGUGGCAACCGGGUGUUGCUAUGCCUAAUCUUUACAAAAUGCAAAGA (structured_RNA) [P3]
[7]; tandem stem-loops
  binding result: binds

## GGUUUAUACCUUCCCAGGUAACAAACCAACCAACUUUC (structured_RNA) [SL1_extSL1]
[8]
  Kd: 87 µM

## GGCUUUCGAUCUCUUGUAGAUCUGUUCUCUAAACGAACUUUAA (structured_RNA) [SL2+3]
[4]; two stem-loops
  apparent K (half saturation): ~10 µM
